Changes are numbered by the printed parent chain.

The target of experiment [1] is T1, wild-type human ALK2 on cells (cDNA in pcDEF3) (human, UniProt Q04771 21-509).
T1 construct: also called wild-type ALK2; ALK2 (WT)
T1 sequence: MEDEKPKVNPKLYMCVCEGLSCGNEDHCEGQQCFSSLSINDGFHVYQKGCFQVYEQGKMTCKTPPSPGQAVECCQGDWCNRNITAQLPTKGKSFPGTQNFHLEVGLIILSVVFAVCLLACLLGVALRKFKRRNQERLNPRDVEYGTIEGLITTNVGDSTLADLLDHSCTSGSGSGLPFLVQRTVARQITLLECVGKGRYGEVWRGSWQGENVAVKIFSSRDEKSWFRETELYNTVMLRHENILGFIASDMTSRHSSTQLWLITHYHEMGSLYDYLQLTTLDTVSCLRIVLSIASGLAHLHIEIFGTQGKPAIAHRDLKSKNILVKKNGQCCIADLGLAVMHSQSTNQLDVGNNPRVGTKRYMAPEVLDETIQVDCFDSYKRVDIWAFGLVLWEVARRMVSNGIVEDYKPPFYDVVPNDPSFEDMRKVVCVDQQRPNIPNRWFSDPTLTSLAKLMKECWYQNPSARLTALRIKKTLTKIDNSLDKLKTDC
As to the kind of experiment: immunofluorescence on transfected, formalin-fixed C2C12 cells, IgG at 10 µg/mL, Alexa 594 anti-rat IgG. As for the experimental part:
(§1) Mouse C2C12 cells were seeded into a 96-well plate (Greiner Bio-One) at 0.5×10³ cells/well, and cultured in 15% FBS-containing DMEM medium overnight under the conditions of 5% CO₂ at 37° C. On the following day, the C2C12 cells were transfected with each of a wild-type human ALK2 cDNA integrated into pcDEF3; pcDEF3/human ALK2-L196P, pcDEF3/human ALK2-P197_F198delinsL, pcDEF3/human ALK2-R202I, pcDEF3/human ALK2-R206H, pcDEF3/human ALK2-Q207E, pcDEF3/human ALK2-R258S, pcDEF3/human ALK2-G325A, pcDEF3/human ALK2-G328E, pcDEF3/human ALK2-G328R, pcDEF3/human ALK2-G328W, pcDEF3/human ALK2-G356D, and pcDEF3/human ALK2-R375P, which are variants identified in FOP; and pcDEF3 as a control, using Lipofectamine 2000 (Invitrogen), and further cultured overnight.
(§2) The C2C12 cells were fixed with 10% neutral formalin (Nacalai Tesque, Japan) for 20 minutes at room temperature, and then blocked with 10% goat normal serum for 30 minutes. After the blocking agent was removed, purified IgG diluted to 10 μg/mL with the blocking agent was added, and the cells were left for 1 hour at room temperature. After the cells were washed with PBS three times, Goat Alexa 594-conjugated anti-rat IgG (Invitrogen) diluted to 1:1000 with the blocking agent was added, and the cells were left for 1 hour at room temperature. After the cells were washed with PBS three times, the cells were fixed with 10% neutral formalin for 15 minutes at room temperature, and nuclear-stained with DAPI (LifeTechnologies). Fluorescent signals were analyzed with a fluorescence microscope BZ-9000 (Keyence).

The target in experiment [2] is T2, human ALK2-L196P on cells (human, UniProt Q04771 21-509).
T2 sequence: T1 sequence with L176P
The description is as above. As for the experimental part: as §1, §2

Experiment [3] addresses T3, human ALK2(R206H)-EGFP on HEK293A cells (human, UniProt Q04771 21-509).
T3 construct: also called hALK2(R206H)-EGFP; FOP human ALK2; not shown: EGFP fused to ALK2
T3 sequence: T1 sequence with R186H
Put plainly: flow cytometry on transfected HEK293A cells, Alexa 647 anti-rat IgG (APC-A) against EGFP (FITC-A). How it is done: HEK293A cells were seeded into a 100-mm dish at 3×10⁴ cells/cm², and cultured overnight in 15% FBS-containing DMEM medium under the conditions of 5% CO₂ at 37° C. On the following day, the HEK293A cells were transfected with each of pcDEF3/mouse ALK2(WT)-EGFP, pcDEF3/human ALK2(WT)-EGFP, pcDEF3/human ALK2 (R206H)-EGFP, and pcDEF3, using Lipofectamine 2000 (Invitrogen), and further cultured overnight. On the following day, 100 μL each of the cell suspensions adjusted to 1×10⁶ cells/mL was dispensed into a 1.5-mL microfuge and centrifuged at 500 g for 5 minutes, and then the supernatant was removed. To the cells, 100 μL of purified IgG diluted to 1 μg/mL was added, and the cells were left for 30 minutes at 4° C. After the cells were washed with PBS three times, 100 μL of Alexa flour 647 Goat anti-Rat IgG (H+L) (Life Technologies) diluted to 1:200 was added, and the cells were further left for 30 minutes at 4° C. After the cells were washed with PBS three times, fluorescence was detected by a flow cytometer (FACS Aria II: BD Biosciences). The data was analyzed using BD Diva Software (BD Biosciences), and the intensity of EGFP expressed by the cells and the fluorescence intensity of stained Alexa flour 647 were plotted.
On the technique in general: Flow cytometry measures light scatter and fluorescence of single cells or particles in a stream.

B1: rat anti-ALK2 monoclonal antibody A2-25C (antibody, V domains shown)
VH: EVQLVESGGGLVQPGGSLKLSCAASGFTFSYYAMSWVCQAPTKGLEWVASISRGGDNTYYRDTVKGRFTTSRDNAKNTLYLQMDSLRSEDTATYYCARLNYNNYFDYWGQGVMVTVSS
VL: DIQMTQSPASLSASLEEIVTITCQASQDIGNWLSWYQQKPGKSPQLLIYGATSLADGVPSRFSGSRSGTQYSLKISRLRVEDIGIYYCLQAYSAPFTFGSGTKLEIKR
notes: Rat monoclonal IgG from a hybridoma; also called 25C11
As for B1, the binding result in experiment [1], in experiment [2] and in experiment [3] was “binds” each time.

B2: rat anti-ALK2 monoclonal antibody A2-15A (antibody, V domains shown)
VH: EVQLVESGGGLVQPGRSLKLSCAASGFTFSHYYMAWVRQAPTKGLEWVASITNSGGSINYRDSVKGRFTISRDNAKSTLYLQMDSLRSEDTATYYCTREGGENYGGYPPFAYWGQGTLVTVSS
VL: DIVLTQSPALAVSLGQRATISCRANQGVSLSRYNLMHWYQQKPGQKPKLLIYRSSNLASGIPARFSGSGSGTDFTLTINPVQADDIATYYCQQSRESPFTFGAGTKLELKR
notes: Rat monoclonal IgG from a hybridoma; also called 15A6
For B2, the binding result in experiment [3] is “binds”.

B3: rat anti-ALK2 monoclonal antibody A2-27D (antibody, V domains shown)
VH: EVQLVESGGGLVQPGRSLKLSCLASGSTFSNYGMKWIRQAPGKGLEWVASISRSSTYIYYADTVKGRFTISRDNARNTLYLQMTSLRSEDTALYYCAAAISTPFYWYFDFWGPGTVVTVSS
VL: EIVLTQSPTTMAASPGEKVTLNCLASSSVSYMTWYQQKSGASPKLWIYGTSNLASGVPNRFSGSGSGTSYSLAISSMEAEDVATYYCLHLTSYPPYTFGAGTKLELKR
notes: Rat monoclonal IgG from a hybridoma; also called 27D11
Take B3: the binding result in experiment [1], in experiment [2] and in experiment [3] was “binds” throughout.

B4: rat anti-ALK2 monoclonal antibody A2-11E (antibody, V domains shown)
VH: EVQLVETGGGLVQPGRSLKLSCVASGFTFSNYYMYWIRQAPGKGLEWISSINTDGGSTYYPDSVKGRFAISRDNAENTVYLQMNSLRSEDTATYYCAKSTPNIPLAYWGQGTLVTVSS
VL: DIQMTQSPSLLSASVGDRVTLSCKASQNIYKYLNWFQQKLGEAPKLLIYYSNSLQTGIPSRFSGSGSGTDFTLTISSLQPEDVAIYFCFQYSSGPTFGPGTKLELKR
notes: Rat monoclonal IgG from a hybridoma; also called 11E2
For B4, the binding result in experiment [3] is “binds”.

(Values after patent US20220041738A1 (SAITAMA MEDICAL UNIVERSITY, published 2022).)
